Patent US9284541B2, “Methods and compositions for protein labeling using lipoic acid ligases” (Massachusetts Institute of Technology, priority 2007, dated 2016)

How the values were obtained:
[1] = target: T1, LAP2 (Escherichia coli, UniProt P32099, W38V); conditions: cited from earlier work
[2] = test system: LAP-YFP fusion protein; test: Orthogonal resorufin and 7-hydroxycoumarin labeling in living HEK 293T cells; conditions: 5 μM resorufin-AM2 and 20 μM 7-hydrozycoumarin-AM2, 10 minutes
Description: After being rinsed with DPBS or HBSS, the transfected cells were incubated with 5 μM resorufin-AM2 and 20 μM 7-hydrozycoumarin-AM2 at 37° C. for 10 minutes.
The cells were washed with the culture medium, cultured at 37° C. for 30 minutes, and observed under a fluorescent microscope.

[3] = test system: LAP peptide (sequence=GFEIDKVWYDLDA); conditions: 1 μM ligase, 200 μM LAP peptide, 500 μM resorufin-AM2, 30° C., 1 hour
Description: These DNA fragments were cloned into expression vectors and expressed in E. coli cells. The ligase activity of the LplA mutants thus prepared in catalyzing formation of resorufin-LAP conjugate was tested as described below. 1 μM Lipoic acid ligase, 200 μM, LAP peptide (sequence=[…]), ligase, 500 μM resorufin-AM2, 2 mM ATP, and 5 mM magnesium acetate were mixed in an Eppendorf tube and incubated at 30° C. for 1 hour. Components in the mixture were analyzed by C18 HPLC and tandem ESI-MS, using 15%→40% acetonitrile linear gradient over 8 minutes containing 0.1% formic acid to resolve resorufin, LAP, and resorufin-LAP conjugate. A mixtures omitting ATP or the lipoic acid ligase was used as a negative control.

[4] = test system: FKBP-LAP1 and FRB-LplAW37V; conditions: FRB fusions, ID-PRIME labeling of FKBP-LAP1
Description: Growth media was then removed and the cells were labeled by applying 20 μM coumarin-AM2 in serum-free DMEM at 37° C. for 10 minutes. Excess coumarin was washed out with three changes of fresh DMEM over 60 minutes at 37° C. Cells were imaged in DPBS. Confocal images were acquired at 60× magnification.

[5] = target: FKBP-LAP1 (Escherichia coli, UniProt P32099, W38V)
[6] = target: T1, LAP2; conditions: coumarin ligation

B1: W37V: E. coli LplA single mutant W37V, coumarin ligase (protein)
chain: STLRLLISDSYDPWFNLAVEECIFRQMPATQRVLFLVRNADTVVIGRAQNPWKECNTRRMEEDNVRLARRSSGGGAVFHDLGNTCFTFMAGKPEYDKTISTSIVLNALNALGVSAEASGRNDLVVKTVEGDRKVSGSAYRETKDRGFHHGTLLLNADLSRLANYLNPDKKKLAAKGITSVRSRVTNLTELLPGITHEQVCEAITEAFFAHYGERVEAEIISPNKTPDLPNFAETFARQSSWEWNFGQAPAFSHLLDERFTWGGVELHFDVEKGHITRAQVFTDSLNPAPLEALAGRLQGCLYRADMLQQECEALLVDFPEQEKELRELSAWMAGAVR
modifications: E. coli
[1]
  reported kcat for coumarin ligation to LAP2: 0.019 s⁻¹
[2]
  substrate specificity in cells: only catalyzes conjugate of 7-hydroxycoumarin
[3]
  Yield of resorufin-LAP conjugate: <5%
[4]
  background versus expression level: increased with expression level
[5]
  catalytic rate slower than lipoic acid ligation: 22 times
[5]; purified FKBP-LAP1
  kcat for coumarin ligation to LAP1: 0.01 ± 0.001 s⁻¹
[5]; read-out: Km of the enzyme for LAP1, coumarin probe, purified FKBP-LAP1
  Km: 681 ± 168 µM
[6]
  Kcat for coumarin: 0.019 s⁻¹
